{"source": "patent US20020001857A1", "key": {"PHF-tau (human) [1]": {"molecular_target": "PHF-tau (human) (UniProt P10636)", "assay": "competition ELISA on captured PHF-tau; biotinylated AT8, unlabeled competitor AT8 at 10 ug/ml"}, "PHF-tau (human) [2]": {"molecular_target": "PHF-tau (human) (UniProt P10636)", "assay": "competition ELISA on captured PHF-tau; biotinylated AT8, unlabeled competitor AT120 at 10 ug/ml"}, "[3]": {"molecular_target": "affinity-purified human normal tau (human) (UniProt P10636)", "assay": "sandwich ELISA, AT120 coated, tau spiked in tau-negative CSF, detection with biotinylated BT2 and HT7"}, "PHF-tau (human) [4]": {"molecular_target": "PHF-tau (human) (UniProt P10636)", "assay": "sandwich ELISA, AT120 coated, tau spiked in tau-negative CSF, detection with biotinylated BT2 and HT7"}, "PHF-tau (human) [5]": {"molecular_target": "PHF-tau (human) (UniProt P10636)", "assay": "competition ELISA on captured PHF-tau; biotinylated AT120, unlabeled competitor AT120 at 10 ug/ml"}, "[6]": {"molecular_target": "affinity-purified human normal tau (human) (UniProt P10636)", "assay": "sandwich ELISA, AT120 coated, no tau added (background), detection with biotinylated BT2 and HT7"}, "PHF-tau (human) [7]": {"molecular_target": "PHF-tau (human) (UniProt P10636)", "assay": "sandwich ELISA, AT120 coated, no tau added (background), detection with biotinylated BT2 and HT7"}, "PHF-tau (human) [8]": {"molecular_target": "PHF-tau (human) (UniProt P10636)", "assay": "competition ELISA on captured PHF-tau; biotinylated AT120, unlabeled competitor AT8 at 10 ug/ml"}, "PHF-tau (human) [9]": {"molecular_target": "PHF-tau (human) (UniProt P10636)", "assay": "competition ELISA on captured PHF-tau; biotinylated BT2, unlabeled competitor AT120 at 10 ug/ml"}, "PHF-tau (human) [10]": {"molecular_target": "PHF-tau (human) (UniProt P10636)", "assay": "competition ELISA on captured PHF-tau; biotinylated BT2, unlabeled competitor BT2 at 10 ug/ml"}}}
{"substance": "monoclonal antibody AT8", "values": [{"measurement": "absorbance", "setting": "PHF-tau (human) [1]", "result": 0.001, "unit": "absorbance"}, {"measurement": "absorbance", "setting": "PHF-tau (human) [2]", "result": 0.372, "unit": "absorbance"}]}
{"substance": "monoclonal antibody AT120", "values": [{"measurement": "absorbance at 10 pg/ml (milliabsorbance units)", "setting": "[3]", "result": 154}, {"measurement": "absorbance at 20 pg/ml (milliabsorbance units)", "setting": "[3]", "result": 256}, {"measurement": "absorbance at 40 pg/ml (milliabsorbance units)", "setting": "[3]", "result": 678}, {"measurement": "absorbance at 80 pg/ml (milliabsorbance units)", "setting": "[3]", "result": 970}, {"measurement": "absorbance at 160 pg/ml (milliabsorbance units)", "setting": "[3]", "result": 1610}, {"measurement": "absorbance at 10 pg/ml (milliabsorbance units)", "setting": "PHF-tau (human) [4]", "result": 143}, {"measurement": "absorbance at 20 pg/ml (milliabsorbance units)", "setting": "PHF-tau (human) [4]", "result": 257}, {"measurement": "absorbance at 40 pg/ml (milliabsorbance units)", "setting": "PHF-tau (human) [4]", "result": 566}, {"measurement": "absorbance at 80 pg/ml (milliabsorbance units)", "setting": "PHF-tau (human) [4]", "result": 901}, {"measurement": "absorbance at 160 pg/ml (milliabsorbance units)", "setting": "PHF-tau (human) [4]", "result": 1680}, {"measurement": "absorbance", "setting": "PHF-tau (human) [5]", "result": 0.001, "unit": "absorbance"}, {"measurement": "absorbance at 0 pg/ml (blank) (milliabsorbance units)", "setting": "[6]", "result": 87}, {"measurement": "absorbance at 0 pg/ml (blank) (milliabsorbance units)", "setting": "PHF-tau (human) [7]", "result": 92}, {"measurement": "absorbance", "setting": "PHF-tau (human) [8]", "result": 0.476, "unit": "absorbance"}]}
{"substance": "monoclonal antibody BT2", "values": [{"measurement": "absorbance", "setting": "PHF-tau (human) [9]", "result": 0.543, "unit": "absorbance"}, {"measurement": "absorbance", "setting": "PHF-tau (human) [10]", "result": 0.054, "unit": "absorbance"}]}
